From patent US8945359B2, “Flavin-binding glucose dehydrogenase” (Ikeda Food Research Co., Ltd., priority 2011, dated 2015)
Where two headings read alike, the source gives them in different places.

Columns and labels:
[1] = system: Sclerotinia sclerotiorum NBRC103652 flavin-binding glucose dehydrogenase ScGLD (C), purified, wild type; assay: Inhibitive effect of 1,10-phenanthroline, ScGLD; assay type: biochemical; settings: methanol only = 0%
Method: After the column was washed with the buffer solution C2, a protein was eluted with linear gradient of a buffer solution D3 (500 mM potassium phosphate buffer solution, pH 7.0) in the buffer solution C2.
(§1) The enzymatic activity of each of the purified GLDs (A) to (F) was measured when 1,10-phenanethroline dissolved in methanol was added such that its final concentration was 2 mM, 5 mM or 10 mM in the above method for measuring enzymatic activity. The inhibitive effect obtained when only methanol was added was defined as 0% to find the inhibitive effect of 1,10-phenanthroline at each concentration. The obtained results are shown collectively as the inhibitive effect of 1,10-phenanthroline in Table 4.

[2] = system: Botrytis fabae NBRC7171 flavin-binding glucose dehydrogenase BoGLD (D), purified, wild type; assay: Inhibitive effect of 1,10-phenanthroline, BoGLD; assay type: biochemical; settings: methanol only = 0%
Method: as §1

[3] = target: T1, Botrytis tulipae NBRC5896 flavin-binding glucose dehydrogenase BotGLD (E), purified from A. oryzae NS4 with BotGLD-Atsig modified gene, SEQ ID NO: 4 (without signal sequence SEQ ID NO: 12) (Botrytis tulipae, UniProt A0A4Z1FFJ6); assay: Inhibitive effect of 1,10-phenanthroline, BotGLD; assay type: biochemical
T1 construct: up to three extra N-terminal residues possible
Method: as §1

[4] = system: Dumontinia tuberosa NBRC30254 flavin-binding glucose dehydrogenase DuGLD (A), purified, wild type, SEQ ID NO: 2 (without signal sequence SEQ ID NO: 10); assay: Inhibitive effect of 1,10-phenanthroline, DuGLD; assay type: biochemical; settings: methanol only = 0%
Method: as §1

[5] = system: Ciborinia camelliae NBRC103663 flavin-binding glucose dehydrogenase CiGLD (F), purified from A. oryzae NS4 with CiGLD-Atsig modified gene, SEQ ID NO: …; assay: Inhibitive effect of 1,10-phenanthroline, CiGLD; assay type: biochemical; settings: methanol only = 0%
Method: as §1

[6] = system: Ovulinia azaleae NBRC6610 flavin-binding glucose dehydrogenase OvGLD (B), purified, wild type, SEQ ID NO: 6 (without signal sequence SEQ ID NO: 14); assay: Inhibitive effect of 1,10-phenanthroline, OvGLD; assay type: biochemical; settings: methanol only = 0%
Method: as §1

[7] = system: OC[C@H]1OC(O)[C@H](O)[C@@H](O)[C@@H]1O; assay: purified protein, by the assay type; settings: other: BotGLD, D-glucose varied, Hanes-Woolf plot, DCIP/1-m-PMS, pH 6.0, 37° C.
Method: Each solution was mixed according to the following procedures to measure the absorbance, thereby examining GLD activity.
Then, 0.05 mL of an enzyme sample was added to the mixture to start a reaction. The amount (ΔA600) of reduction in light absorbance per minute at 600 nm along with the progress of the enzymatic reaction was measured for 5 minutes from the start of the reaction to calculate GLD activity from the straight line part according to the equation 1. At this time, in the measurement of GLD activity, the amount of an enzyme reducing 1 μmol of DCIP at 37° C. and a pH of 6.0 for one minute was defined as 1 U.
In the above formula, 3.0 represents the amount (mL) of reaction reagent+oxygen solution, 10.8 represents the molar absorption coefficient (mM^−1 cm^−1) of DCIP at a pH of 6.0, 1.0 represents the optical path length (cm) of a cell, 0.05 represents the amount (mL) of the oxygen solution, ΔA600 blank represents a reduction in the amount of light absorbance per minute at 600 nm when the solution used to dilute the enzyme is added in place of the enzyme solution to start a reaction, and df represents a dilution ratio.

[8] = Substrate specificity; assay type: biochemical; settings: 333 mM
Excerpt: As these substrates, maltose, D-galactose, D-fructose, sorbitol, lactose, sucrose, D-xylose, D-mannose and trehalose were used. When the activity to D-glucose was defined as 100%, the relative activity to each substrate was found. These relative activities are described collectively as the substrate specificity in Table 2.

[9] = Temperature characteristics; assay type: biochemical
Method: The relative activity at each temperature was calculated when the activities at 30 and 45° C. were each defined as 100%. In this case, each sample was measured twice in the same condition. An average of the measured relative activities is collectively described in Table 3.

[10] = substrate D-fructose, D-glucose = 100%
[11] = substrate D-galactose, D-glucose = 100%
[12] = substrate D-glucose (defined as 100%)
[13] = substrate D-mannose, D-glucose = 100%
[14] = substrate D-xylose, D-glucose = 100%
[15] = substrate lactose, D-glucose = 100%
[16] = substrate maltose, D-glucose = 100%
[17] = substrate sorbitol, D-glucose = 100%
[18] = substrate sucrose, D-glucose = 100%
[19] = substrate trehalose, D-glucose = 100%

Molecule: c1cnc2c(c1)ccc1cccnc12 [1,10-phenanthroline]
- Inhibitive effect ([1]; final concentration 2 mM): 5.28%
- Inhibitive effect ([1]; final concentration 5 mM): 18.4%
- Inhibitive effect ([1]; final concentration 10 mM): 32.3%
- Inhibitive effect ([2]; final concentration 2 mM): 10.4%
- Inhibitive effect ([2]; final concentration 5 mM): 15.9%
- Inhibitive effect ([2]; final concentration 10 mM): 28.5%
- inhibition at 2000 µM ([3]; BotGLD, final concentration 2 mM, methanol only = 0%, read-out: Inhibitive effect): 33.5%
- inhibition at 5000 µM ([3]; BotGLD, final concentration 5 mM, methanol only = 0%): 38.6%
- inhibition at 10000 µM ([3]; BotGLD, final concentration 10 mM, methanol only = 0%): 75.4%
- inhibition at 2000 µM ([3]; DuGLD, OvGLD and BotGLD together, 2 mM, read-out: Inhibitive effect (summary range)): 20 to 34%
- Inhibitive effect ([4]; final concentration 2 mM): 20.4%
- Inhibitive effect ([4]; final concentration 5 mM): 30.1%
- Inhibitive effect ([4]; final concentration 10 mM): 42.3%
- Inhibitive effect ([5]; final concentration 2 mM): 6.34%
- Inhibitive effect ([5]; final concentration 5 mM): 14.7%
- Inhibitive effect ([5]; final concentration 10 mM): 32.7%
- Inhibitive effect ([6]; final concentration 2 mM): 34.1%
- Inhibitive effect ([6]; final concentration 5 mM): 51.7%
- Inhibitive effect ([6]; final concentration 10 mM): 65.1%

Molecule: Botrytis tulipae NBRC5896 flavin-binding glucose dehydrogenase BotGLD (E), purified from A. oryzae NS4 with BotGLD-Atsig modified gene, SEQ ID NO: 4 (without signal sequence SEQ ID NO: 12) (Botrytis tulipae)
- Km [7]: 36.2 mM

B1: DuGLD: purified enzyme of flavin-binding GLD derived from the genus Dumontinia (Dumontinia tuberosa NBRC30254) (protein, listed as Dumontinia tuberosa)
chain: MNHLLPAFALASLAVASPDLSLTYDYVIVGAGTSGLVIANRLSELNVTVAVIEAGDSGYNNVNVTNPAGYGLAFGTDIDWAYQSTNQKYAGNATQTLRAGKVIGGTSTINGMAYTRAEDVQIDAWAALGNDGWNWENLFPYYKKSQTLQAPTAAQAEAGATYDPSANGFDGPLKVGWLKSLANDDFHIILNDTYASLGIFANEDVNTGRMVGYNRYPVTYDETLNVRHDAGRAYYYPIANRTNLHLYPNTMAQRLTWKSGADVPTANGVEVLTNNSSIPYTISANSEVILSAGALASPLLLELSGIGNPSLLNKYNIPVVVDLPTVGENLQDQTNNGLAYTVSKDASFSGVGTLVTYPSAAQVFGSEIQNISAHVLDSLPSYAAQVSAASGNVTKAADLLEFFKIQHDLIFSTTHPVPMAEILVIPSATGFKSEYWALLPFARGNIHITSSIPGTPAAINPNYYMLDWDITSQITTAKFIRSVYATSPLSTLVGSETKPGLETLSANATEAEWSEWIKAGYRPNFHPVSTAAMMPREVGGVVDSRLKVYGTSNVRVVDASVLPMQVSGHLVSTLYAVAERAADLIKEDI
modifications: CDS (1)..(1770); sig_peptide (1)..(57)
- Relative activity [8, 10]: < 0.1%
- Relative activity [8, 11]: 0.28%
- Relative activity [8, 12]: 100%
- Relative activity [8, 13]: 1.7%
- Relative activity [8, 14]: 10%
- Relative activity [8, 15]: < 0.1%
- Relative activity [8, 16]: 0.54%
- Relative activity [8, 17]: < 0.1%
- Relative activity [8, 18]: < 0.1%
- Relative activity [8, 19]: 1.0%
- Relative activity ([9]; 10° C., substrate 10 mM, 100% at 30° C.): 60.6%
- Relative activity ([9]; 10° C., substrate 10 mM, 100% at 45° C.): 60.1%
- Relative activity ([9]; 10° C., substrate 50 mM, 100% at 30° C.): 56.0%
- Relative activity ([9]; 10° C., substrate 50 mM, 100% at 45° C.): 50.5%
- Relative activity ([9]; 20° C., substrate 10 mM, 100% at 30° C.): 81.5%
- Relative activity ([9]; 20° C., substrate 10 mM, 100% at 45° C.): 80.7%
- Relative activity ([9]; 20° C., substrate 50 mM, 100% at 30° C.): 77.9%
- Relative activity ([9]; 20° C., substrate 50 mM, 100% at 45° C.): 70.3%
- Relative activity ([9]; 30° C., substrate 10 mM, 100% at 30° C.): 100%
- Relative activity ([9]; 30° C., substrate 10 mM, 100% at 45° C.): 99.1%
- Relative activity ([9]; 30° C., substrate 50 mM, 100% at 30° C.): 100%
- Relative activity ([9]; 30° C., substrate 50 mM, 100% at 45° C.): 90.2%
- Relative activity ([9]; 40° C., substrate 10 mM, 100% at 30° C.): 108%
- Relative activity ([9]; 40° C., substrate 10 mM, 100% at 45° C.): 107%
- Relative activity ([9]; 40° C., substrate 50 mM, 100% at 30° C.): 109%
- Relative activity ([9]; 40° C., substrate 50 mM, 100% at 45° C.): 98.6%
- Relative activity ([9]; 45° C., substrate 10 mM, 100% at 30° C.): 101%
- Relative activity ([9]; 45° C., substrate 10 mM, 100% at 45° C.): 100%
- Relative activity ([9]; 45° C., substrate 50 mM, 100% at 30° C.): 111%
- Relative activity ([9]; 45° C., substrate 50 mM, 100% at 45° C.): 100%
- Relative activity ([9]; 50° C., substrate 10 mM, 100% at 30° C.): 87.5%
- Relative activity ([9]; 50° C., substrate 10 mM, 100% at 45° C.): 86.7%
- Relative activity ([9]; 50° C., substrate 50 mM, 100% at 30° C.): 105%
- Relative activity ([9]; 50° C., substrate 50 mM, 100% at 45° C.): 94.4%

B2: BotGLD: purified enzyme of GLD derived from Botrytis tulipae, produced in A. oryzae NS4 carrying the BotGLD-Atsig modified gene (protein, listed as Botrytis tulipae)
chain: MYRLLSTFALASLAAASTDSTLTYDYIVIGAGTSGLVIANRLSELNVTVAVIEAGDSGYNNPNVTNPSGYGLSFGTDIDWAYQSTNQKYAGNTSQVLRAGKIIGGTSTINGMAYTRAEDVQIDAWAAIGNDGWNWANLFPYYKKSQTLEIPTTAQVEAGAAYDASANGFDGPLKVGWLNSLEDTSNFHTTLNDTFAGLGVPSNDDVNTGRMVGYSRYPATYDRTLNVRHDAGRAYYYPIANRTNLHLYPNTMAQRLTWTSDANTPTANGVEVLSNNSSIPYTIHANSEVILSAGALASPLLLELSGIGNPSILSKHNISVVVDLPTVGENLQDQTNTGLAYNSSGNTSFSGAGTLVAYPSAAQLFGSEVQKISAHVLQSLPSYAAQVSAASGNITKAADLLKFFKIQHDLIFSTTHPVPMAEILISPSATAFSSEYWALLPFARGSIHITSSVAGTPAAINPNYFMFDWDVTSQIATAKFIRSIYAASPLSSFVGSETKPGLNKVSANATEAEWFDWVKTAYRSNFHPVSTAAMMPREIGGVVDSRLKVYGTANVRVVDASILPMQVSGHLVSTLYAVAERAADLIKEDI
modifications: CDS (1)..(1773); sig_peptide (1)..(57)
notes: purified enzyme of GLD derived from Botrytis tulipae, produced in A. oryzae NS4 carrying the BotGLD-Atsig modified gene
- Relative activity [8, 10]: < 0.1%
- Relative activity [8, 11]: 0.76%
- Relative activity [8, 12]: 100%
- Relative activity [8, 13]: 8.2%
- Relative activity [8, 14]: 20%
- Relative activity [8, 15]: < 0.1%
- Relative activity [8, 16]: 1.5%
- Relative activity [8, 17]: < 0.1%
- Relative activity [8, 18]: < 0.1%
- Relative activity [8, 19]: 10%

B3: CiGLD: purified enzyme of GLD derived from the genus Ciborinia, produced in A. oryzae NS4 carrying the CiGLD-Atsig modified gene (protein, listed as Ciborinia camelliae)
chain: MHRFLPAFVLASLAAASQDVALTYDYVIVGAGTSGLVTAHRLSELADVTVAVIEAGESNYNNANVTNPAGYGLAFGTQIDWQYQTTVQEYGGDVTKVIRAGKSIGGTSTINGMAYTRAEDVQVDAWEALGNEGWNWANMLPYYKKSQTLQVPTEAQAALGAHYDPASNGYEGPLKVGWVNAMATDDFHTILNETYAALDVPANNDVNTGKMIGYTRYPATYDRTLNMRCDAGRAYYYPIQNRTNLHLYPNTMAQRLTWKSGASTPTAEGVEVLADGETTPYTIHASSEVIISAGALGSPLVLEHSGIGNPAILEKYNISVVVDLPTVGENLQDQTNTALGFDTSSDNVTYSAVSTYLGYPSAAQMFGSDFKTVAAEILAALPSYADKVAIASGNVTKAADLLKFFKIQYELIFSATSPVPVAELLVTPVGTTYSAEFWSLLPFSRGNIHISSATPGVAATINPNYFMLDYDMISQVRSAKYIREIFATTPLSPLVGSETTPGLDSIASAATEAEWAAWVKTAYRSNFHPVATAAMMPREIGGVVDSRLKVYGTTNVRVVDASILPMQVCGHLTSTLYAMSERAADLIKEDM
modifications: CDS (1)..(1776); sig_peptide (1)..(57)
notes: purified enzyme of GLD derived from the genus Ciborinia, produced in A. oryzae NS4 carrying the CiGLD-Atsig modified gene
- Relative activity [8, 10]: 0.49%
- Relative activity [8, 11]: 10%
- Relative activity [8, 12]: 100%
- Relative activity [8, 13]: 23%
- Relative activity [8, 14]: 25%
- Relative activity [8, 15]: 0.21%
- Relative activity [8, 16]: 6.4%
- Relative activity [8, 17]: 0.38%
- Relative activity [8, 18]: 0.40%
- Relative activity [8, 19]: 20%
